T1: propeptide of Rhizomucor miehei lipase (RmL propeptide)
T1 chain: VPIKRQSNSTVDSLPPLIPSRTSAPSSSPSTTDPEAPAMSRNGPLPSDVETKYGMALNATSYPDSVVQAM

T2: Lipex (SEQ ID NO: 5) (Thermomyces lanuginosus (Thermophilic …, UniProt O59952 23-291))
T2 chain: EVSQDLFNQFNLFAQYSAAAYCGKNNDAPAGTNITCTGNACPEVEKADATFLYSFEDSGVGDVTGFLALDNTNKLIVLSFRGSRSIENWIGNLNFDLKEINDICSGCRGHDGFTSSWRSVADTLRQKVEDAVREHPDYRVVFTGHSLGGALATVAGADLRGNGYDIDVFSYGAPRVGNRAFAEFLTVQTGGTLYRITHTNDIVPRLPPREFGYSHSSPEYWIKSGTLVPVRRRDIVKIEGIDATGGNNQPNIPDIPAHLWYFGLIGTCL

T3: Rhizomucor miehei lipase (RmL) mature protein (Rhizomucor miehei, UniProt P19515 95-363)
T3 sequence: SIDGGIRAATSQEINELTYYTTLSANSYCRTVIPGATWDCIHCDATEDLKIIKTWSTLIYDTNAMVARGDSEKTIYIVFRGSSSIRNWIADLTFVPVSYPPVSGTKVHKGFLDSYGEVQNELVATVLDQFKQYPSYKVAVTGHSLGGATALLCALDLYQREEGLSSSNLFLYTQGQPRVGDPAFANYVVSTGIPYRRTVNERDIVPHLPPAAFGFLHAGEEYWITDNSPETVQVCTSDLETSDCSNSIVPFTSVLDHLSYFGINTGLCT

T4: RhimiLip1 (SEQ ID NO: 7)
T4 chain: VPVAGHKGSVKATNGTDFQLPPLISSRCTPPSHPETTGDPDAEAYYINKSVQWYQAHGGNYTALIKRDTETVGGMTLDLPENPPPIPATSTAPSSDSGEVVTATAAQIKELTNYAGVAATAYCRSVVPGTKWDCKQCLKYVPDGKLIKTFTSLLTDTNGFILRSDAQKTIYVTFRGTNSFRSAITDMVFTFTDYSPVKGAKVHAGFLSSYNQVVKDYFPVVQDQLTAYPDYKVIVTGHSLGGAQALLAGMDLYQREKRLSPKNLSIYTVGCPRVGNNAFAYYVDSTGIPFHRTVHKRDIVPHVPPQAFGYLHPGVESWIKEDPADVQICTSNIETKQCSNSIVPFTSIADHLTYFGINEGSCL

T5: MuciLip2CN (SEQ ID NO: 6)
T5 chain: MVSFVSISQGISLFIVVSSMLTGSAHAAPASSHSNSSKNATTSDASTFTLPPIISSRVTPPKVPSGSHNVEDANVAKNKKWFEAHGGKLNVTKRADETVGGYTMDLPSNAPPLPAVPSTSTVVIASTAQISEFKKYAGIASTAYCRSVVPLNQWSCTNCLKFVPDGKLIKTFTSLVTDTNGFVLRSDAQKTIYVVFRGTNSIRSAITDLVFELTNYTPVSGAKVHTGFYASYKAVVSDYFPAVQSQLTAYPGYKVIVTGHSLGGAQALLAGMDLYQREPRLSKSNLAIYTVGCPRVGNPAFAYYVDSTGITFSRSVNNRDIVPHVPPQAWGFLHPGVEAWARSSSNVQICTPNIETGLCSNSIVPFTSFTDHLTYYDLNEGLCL


Key:
[1] = biological target: T1, propeptide of Rhizomucor miehei lipase …
Lipex (SEQ ID NO: 5) = biological target: T2, Lipex (SEQ ID NO: 5); test: cell-based or functional assay
[2] = biological target: T3, Rhizomucor miehei lipase (RmL) mature …; test: cell-based or functional assay
RhimiLip1 (SEQ ID NO: 7) = biological target: T4, RhimiLip1 (SEQ ID NO: 7); test: cell-based or functional assay
[3] = biological target: T5, MuciLip2CN (SEQ ID NO: 6); test: cell-based or functional assay

Binder | hydrolytic activity on p-nitrophenyl acyl esters (C3, C6, C10, C12, C16), release of p-nitrophenol at 405 nm [1] | RP(wash) with inhibitor, AMSA, propeptide:lipase 320:1 (normalized to no inhibitor = 1.00) (Lipex (SEQ ID NO: 5)) | RP(wash) with inhibitor, AMSA, propeptide:lipase 320:1 (normalized to no inhibitor = 1.00) [2] | RP(wash) with inhibitor, AMSA, propeptide:lipase 320:1 (normalized to no inhibitor = 1.00) (RhimiLip1 (SEQ ID NO: 7)) | RP(wash) with inhibitor, AMSA, propeptide:lipase 320:1 (normalized to no inhibitor = 1.00) [3]
Rhizomucor miehei lipase (RmL) mature protein (protein) SIDGGIRAATSQEINELTYYTTLSANSYCRTVIPGATWDCIHCDATEDLKIIKTWSTLIYDTNAMVARGDSEKTIYIVFRGSSSIRNWIADLTFVPVSYPPVSGTKVHKGFLDSYGEVQNELVATVLDQFKQYPSYKVAVTGHSLGGATALLCALDLYQREEGLSSSNLFLYTQGQPRVGDPAFANYVVSTGIPYRRTVNERDIVPHLPPAAFGFLHAGEEYWITDNSPETVQVCTSDLETSDCSNSIVPFTSVLDHLSYFGINTGLCT | RmL with the propeptide bound showed no activity at any of the conditions tested | – | – | – | –
propeptide of Rhizomucor miehei lipase (RmL propeptide) (peptide) peptide: VPIKRQSNSTVDSLPPLIPSRTSAPSSSPSTTDPEAPAMSRNGPLPSDVETKYGMALNATSYPDSVVQAM | – | 0.89 | 0.02 | 0.92 | 1.1

Source: patent publication US20190153410A1 (NOVOZYMES A S, published 2019)
